Results taken from PMC12186490, “Environmental pH controls antimicrobial production by human probiotic Streptococcus salivarius” (Journal of Bacteriology, 2025).

Tests used:
[1] = target: NRPS regulator NrpR (amino acids 1-285), recombinant, untagged (Streptococcus salivarius K12); assay: SEC; Superdex 200 10/300 GL; 20 mM Tris-HCl pH 8.5, 200 mM NaCl, 1 mM TCEP, 5% glycerol; 1 mg/mL NrpR, room temperature; mass standards
[2] = target: fluorescein-labeled synthetic NRPS-inducing peptide (NIP) (Streptococcus salivarius K12); assay: fluorescence polarisation; 1 nM fluorescein-labeled NIP titrated with purified NrpR; 20 mM potassium phosphate, 75 mM NaCl, 2% DMSO, 1 mM EDTA, 0.0005% Tween 20; binding buffer adjusted to near neutral pH (pH 6.5 to 7.5) or pH 5.0
[3] = target: NRPS regulator NrpR (amino acids 1-285), recombinant, untagged (Streptococcus salivarius K12)

Substance | stoichiometry N [1] | fold decrease in affinity against pH 5.5 [2] [fold] | sarD transcript level (qRT-PCR) in the nip* mutant with 100 nM synthetic NIP at pH 5.5 or 6.0, against the unsupplemented mutant; no significant induction at pH 6.5-7.5 or pH 5.0 [3] [fold]
NRPS regulator NrpR (amino acids 1-285), recombinant, untagged (receptor) | 2 | > 2 | 
fluorescein-labeled synthetic NRPS-inducing peptide (NIP) |  |  | > 75
